In article PMC4694752 (Molecular Biology of the Cell, 2016):

T1: His6-Sec31 (aa 1–500) (yeast, UniProt P38968 1-500)
T1 sequence (looked up): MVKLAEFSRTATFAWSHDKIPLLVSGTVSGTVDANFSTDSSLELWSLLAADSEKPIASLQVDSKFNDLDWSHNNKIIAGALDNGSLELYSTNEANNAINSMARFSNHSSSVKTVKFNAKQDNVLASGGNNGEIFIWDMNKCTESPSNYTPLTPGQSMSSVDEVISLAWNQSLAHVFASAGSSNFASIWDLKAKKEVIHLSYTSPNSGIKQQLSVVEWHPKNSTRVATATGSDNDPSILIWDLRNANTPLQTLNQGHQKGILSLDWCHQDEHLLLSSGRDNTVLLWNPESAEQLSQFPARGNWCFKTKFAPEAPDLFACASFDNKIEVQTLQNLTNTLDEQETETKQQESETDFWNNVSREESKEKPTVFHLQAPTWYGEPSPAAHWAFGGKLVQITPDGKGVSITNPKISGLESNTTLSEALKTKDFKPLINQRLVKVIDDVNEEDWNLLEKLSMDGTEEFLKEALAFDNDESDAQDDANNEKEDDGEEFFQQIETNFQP

T2: GST-Sec24 (yeast, UniProt P40482 1-926)
T2 sequence (looked up): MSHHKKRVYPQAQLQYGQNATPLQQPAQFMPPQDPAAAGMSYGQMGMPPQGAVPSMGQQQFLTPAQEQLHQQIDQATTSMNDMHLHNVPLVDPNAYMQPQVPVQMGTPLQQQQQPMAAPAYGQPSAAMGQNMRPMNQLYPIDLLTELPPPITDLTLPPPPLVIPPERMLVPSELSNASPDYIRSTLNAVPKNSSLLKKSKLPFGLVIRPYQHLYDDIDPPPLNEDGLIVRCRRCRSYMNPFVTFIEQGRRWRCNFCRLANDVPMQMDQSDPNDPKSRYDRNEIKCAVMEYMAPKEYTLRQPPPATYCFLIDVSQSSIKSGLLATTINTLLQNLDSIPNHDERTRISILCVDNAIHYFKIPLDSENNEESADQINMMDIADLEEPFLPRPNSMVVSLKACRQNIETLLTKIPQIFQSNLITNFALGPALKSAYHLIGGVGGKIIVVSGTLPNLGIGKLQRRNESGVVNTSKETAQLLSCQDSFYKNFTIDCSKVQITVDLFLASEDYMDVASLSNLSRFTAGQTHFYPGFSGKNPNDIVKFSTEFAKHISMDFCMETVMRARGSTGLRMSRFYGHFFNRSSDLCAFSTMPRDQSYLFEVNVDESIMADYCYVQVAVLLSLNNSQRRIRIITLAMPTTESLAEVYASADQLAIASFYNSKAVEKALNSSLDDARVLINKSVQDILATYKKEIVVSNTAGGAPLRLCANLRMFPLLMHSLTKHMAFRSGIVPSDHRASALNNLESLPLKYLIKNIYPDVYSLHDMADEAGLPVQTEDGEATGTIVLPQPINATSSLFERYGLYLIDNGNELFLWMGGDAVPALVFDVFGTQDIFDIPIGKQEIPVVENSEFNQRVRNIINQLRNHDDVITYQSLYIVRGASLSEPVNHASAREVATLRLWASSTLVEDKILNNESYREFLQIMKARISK

T3: GST-Sec23 (yeast, UniProt P15303 1-768)
T3 sequence (looked up): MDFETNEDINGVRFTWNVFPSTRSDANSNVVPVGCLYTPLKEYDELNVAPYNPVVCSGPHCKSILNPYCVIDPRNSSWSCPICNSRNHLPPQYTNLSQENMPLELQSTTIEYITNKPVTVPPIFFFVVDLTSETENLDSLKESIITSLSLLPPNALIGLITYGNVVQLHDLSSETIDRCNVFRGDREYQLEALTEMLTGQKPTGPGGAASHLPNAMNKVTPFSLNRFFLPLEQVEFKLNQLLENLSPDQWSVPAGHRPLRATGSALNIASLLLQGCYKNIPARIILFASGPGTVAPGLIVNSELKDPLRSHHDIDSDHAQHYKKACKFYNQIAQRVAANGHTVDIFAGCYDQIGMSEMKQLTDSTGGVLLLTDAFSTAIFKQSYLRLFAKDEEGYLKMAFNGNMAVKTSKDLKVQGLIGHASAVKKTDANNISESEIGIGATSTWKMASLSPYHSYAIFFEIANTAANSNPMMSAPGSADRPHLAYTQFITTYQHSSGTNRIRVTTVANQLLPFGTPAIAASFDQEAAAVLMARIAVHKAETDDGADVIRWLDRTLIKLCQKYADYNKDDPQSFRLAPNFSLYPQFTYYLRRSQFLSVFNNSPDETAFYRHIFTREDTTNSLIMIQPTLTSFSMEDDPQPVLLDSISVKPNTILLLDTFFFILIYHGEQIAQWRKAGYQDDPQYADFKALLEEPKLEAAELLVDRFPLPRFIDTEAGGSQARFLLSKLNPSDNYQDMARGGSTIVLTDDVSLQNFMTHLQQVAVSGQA

B1: GST-auxilin-TPR domain (aa 363–561) (domain or fragment, yeast, UniProt Q06677 363-561, looked up)
chain: TIPISDIELSGYNEFKAKGTSLFKNGDYINSLQEYEKSLNTLPLNHPLRIIALSNIIASQLKIGEYSKSIENSSMALELFPSSKAKWKNKISNSDPERSFNDIWPKIMIRRAESFEHLESFKKALETYQELIKKNFFDDKIMQGKRRCQDFINPPPVKKSMPVKKKTTTTSPATKKQNLTASSSNSPISVDSTSEIKKR
B2: His6-auxilin (natural protein, yeast, UniProt Q06677 1-668, looked up)
chain: MSDPFAHLLTSLKNKDSASASKETTPQSSNSPSITGSAVADVARTDKSPNDSLHSISAPPLIPSPKVDFSAPPLVPTNSTTKSNTANNTPPSALANTDDDFNQLFGMGTVTTTDTIQKPDEDYYGSKEDHLYNGDDALVDEVKDMEIARLMSLGLSIEEATEFYENDVTYERYLEILKSKQKERNDLAIRKKESGIKMEKSGLSNIVGTDSNNLFSMATDFFNKGKKLVDQWTSFPPEANDRLNNYSKTHDKVEDYDLPQVNDSPNRILFEDNEVVENLPPADNPDQDLLTDFETKIDITKRTAPDVSHSSSPTSGILIEENSRRNEPLIEDSLLDFSEGNLTNSKSNEDSTLFNENSNTDSTIPISDIELSGYNEFKAKGTSLFKNGDYINSLQEYEKSLNTLPLNHPLRIIALSNIIASQLKIGEYSKSIENSSMALELFPSSKAKWKNKISNSDPERSFNDIWPKIMIRRAESFEHLESFKKALETYQELIKKNFFDDKIMQGKRRCQDFINPPPVKKSMPVKKKTTTTSPATKKQNLTASSSNSPISVDSTSEIKKRELENAKLALYDKVFEKISSWKDGKDDDIRHLLANLSSLLTWCNWKDVSMQDLVMPKRVKITYMKAVAKTHPDKIPESLSLENKMIAENIFSTLSIAWDKFKLQNDIN

Legend:
Experiment in all cases: pull-down
His6-Sec31 (aa 1–500) = target: T1, His6-Sec31 (aa 1–500)
GST-Sec24 = target: T2, GST-Sec24
GST-Sec23 = target: T3, GST-Sec23

Binder	binding result (His6-Sec31 (aa 1–500))	binding result (GST-Sec24)	binding result (GST-Sec23)
B1	binds		
B2		binds	binds
